Publication PMC9335216 (Proceedings of the National Academy of Sciences of the …, 2022)

B1: RclA (Escherichia coli K-12) (protein)
chain: MNKYQAVIIGFGKAGKTLAVTLAKAGWRVALIEQSNAMYGGTCINIGCIPTKTLVHDAQQHTDFVRAIQRKNEVVNFLRNKNFHNLADMPNIDVIDGQAEFINNHSLRVHRPEGNLEIHGEKIFINTGAQTVVPPIPGITTTPGVYDSTGLLNLKELPGHLGILGGGYIGVEFASMFANFGSKVTILEAASLFLPREDRDIADNIATILRDQGVDIILNAHVERISHHENQVQVHSEHAQLAVDALLIASGRQPATASLHPENAGIAVNERGAIVVDKRLHTTADNIWAMGDVTGGLQFTYISLDDYRIVRDELLGEGKRSTDDRKNVPYSVFMTPPLSRVGMTEEQARESGADIQVVTLPVAAIPRARVMNDTRGVLKAIVDNKTQRMLGASLLCVDSHEMINIVKMVMDAGLPYSILRDQIFTHPSMSESLNDLFSLVK

What was measured:
[1] = test system: glutathione reductase (GR); assay: stopped-flow, NAD; format: biochemical; conditions: read-out: apparent KM; 180 µM NAD(P)H, 10 nM enzyme, 50 to 250 µM HOSCN, 100 mM sodium phosphate pH 7.4, aerobic
[2] = substrate: O=S(=O)(O)CCNCl; assay: purified protein; conditions: 100 µM NADH, 10 µM enzyme, 20 mM HEPES, 100 mM NaCl pH 7, anaerobic

Molecule | Km [1] [µM] | Km [2] [µM] | kcat [2] [s⁻¹]
N#CSO [HOSCN, hypothiocyanous acid] | 81 | – | –
B1 | – | 12700 | 33
